Measurements as given in the DeepSol protein solubility set.

Test: soluble on expression in E. coli; label from the status in PepcDB or PDB records

Sequence	soluble on expression in E. coli
MGSDKIHHHHHHMSQTLLALYGLKWNPFSADLPIAAVSVPPKVEDFCWRIEHALVREGGFALIQGDPGTGKSVILRLLAERLSRLPDLTVGAIHHPQSNLADFYRELGDIFAVSLKPSNRWGGFKALRERWLAHLEATRRRPVLLIDEAQEMNAPVLCELRLLSSARFDSQSLLSVLLAGDARLTEKLRREELVPLGSRIRVRLHTESASRNELLGCLEHLMTEAGNAGLMTAGLCQTLCDHAMGNYRVLTQMAAELLAAATQRQLDQLDEKLFLELYGPAQQPARRKAAH	not soluble
MGSDKIHHHHHHMSRPKVIVTIAPTGGMASKQQNPHLPTQPEEIASDVYDCYNAGASVVAVHARRPDDGATCDAAIYRDINTRIRAKCDIVINNSTGGGVHGEMIGQASNGYWEILWEERLKGMDAGAELCTLDATTIIATFGGKELLMHTSPERSKHLAVEMKKRGIKPEWEVFSPTHIVQDVAALTAAGFDEEPFFINLVLGVHRNFQNAMPYSPRVLQSMVDLLPKGSIFCVSGIGPAQLPSAMNSLLLGGHVRVGLEDNLYYSAGELATNVQLVERVVRLVREMGYEPATPREAREIMGLPRSSGPRPDFAMQ	not soluble
MGSDKIHHHHHHMSRRTQIADMRLSSGVPGFDELIEGGLLPNRLYVVSGPPGSGKTTFCSQFITQGVKEGETCLYVTMHETKTELMQDMAGYDFGFDRAMQSDAIQFLNLVTESGKRTITQFGNEGGLTNRLVAYIRQNDIQRVVIDSTMLLQHFMADVEDEITGFLSALKQTDATTLLISEMTDPSSYSDEHYLAHGVVFFHNFLENGSMTRGVQVIKMRGTAIDCDIREISFSDAGLQVHTDRKVET	not soluble
MGSDKIHHHHHHMSSADLLAPYRGPLTVEQVATGMNAATANARRLAQDARLLLANKRWPTAASLAALSIEESGKVVILRRFVTANTDDIKRLWKEYRTHTKKNINWILPELVAKGARRLEDFKPIVDSASDHPDILDAMKQIGFYTDCLGKTNWSRPTEVVDETLAKNLVNAAEVLSPDRNISVRELELWAEHMGPVWNKNLDWMKQALVNWYGAMQAEGLMPAGSNKMQAFVKEGLATDQAKQIGREV	not soluble
MGSDKIHHHHHHMSSATHYILTWQCPDNTGVLAKVSQSLFSHGAFITETSQYSDPYSETFFSRIAFDDRNLTVSSSEFVKALNELAKPLAMQYQLRKRADVPNVLIAVSKDDHCLVSLLTKWRSGALPINIVGVISNHQYCQALSEWHNVPFYHLPVNAETKLEQEAQITDLMEELNIDLLVLARYMQILSDGLCQQLQGKAINIHHSFLPSFKGARPYHQAHARGVKVIGATAHYVTANLDEGPIIAQEVKPINHAFTIEQMVHMGHDLEATALSHAVRIHAEQRVCINGDKTVILA	not soluble
MGSDKIHHHHHHMSSIVLAVGNGKTLFGGSGVAPDADLVRFVDPESPIINAFDLCALRGDGIFEATTVWRGFPVSLENHLKRLANSARLVDMPEPNIPALTRAVQLVIDQYDDPEPGPMLRIIVSRGLDPDTGVGKAADRTPTVYIFLDAKGTLHSLEPITMASMTRGYPSDITARAPWLLNGAKTLSYAFNCAVHRECARRGVGDAILFTEDGYTMECPNSSIVARYGDTFVTPDPRIGILNGTSQREMFAWALEEGKKAEYRKLPIAELREADSLYMTHGGWSIPISAIDGRALAVDAAEIQAINDAIHSGRTHEDALKIGPTGDYE	not soluble
MGSDKIHHHHHHMSSKVAKELADFLLQIEQRSQFHAGYPYNLSCDYSAIGKFFNHLLNNAGDPYIEPDFGLHSRKFEQEVLSFFAHLYKIPENQFWGYVTAGGTEGNLYGIFLAREIYPNGILYSSQDSHYSIPKAAKLFRIQHNVVNSQINGEMNYDHFEQLLSENRRYPAIINLNIGTTVKGAIDNLDKVLEILERNQIKDYYIHCDAALSGLILPFLDGAPQVNFQKPIDSVAISAKFIGSPLPCGVVLTKKKWVEKVETEIEYIGSKDTTILGSRNGHTPLILWYAVQTRGYDGLAKEAKTCIHNAQYLFQQLQIREYPCMLNNFSNTVVFQKPSQRLIKKWQLAVFENWAHMIVMQNIVREKIDIFINELLLEQGLLNNAKNFQLQPVLQH	not soluble
MGSDKIHHHHHHMSSPLLTMRGIRKSYAGVHALVDGNLDLERGQIHALCGGNGAGKSTILGILMGFTRPDCGEIRIEGKPVSFANPTQALQAGIAIVQQELSGVPHLTVAENIYLGAEPRRRGFVDFPQLNRQAEELLASLGFDIDPRVPLASLSIASQQLIEIAKALSRRDADILIFDEPTSAIGEKDTLRLFEVLRDLAAAGKGIIYVTHRLAEVFTIADSYTVFKDGARIETGRVADITREKLIESMIGGAIEGEYVKENVPSDRPLLDVRGLSRAPWFDRVSFTLHAGEILGIYGLVGSGRSQLLDTIYGLYPADAGTVWVEGREIRPGRVRAALGAGISYVTEDRKHSGLVLCASVGDNLSLSQLPHIQRFGFIRTALERAGIDDSIAKMRIKTPGPEQIVRNLSGGNQQKVVFGRCTSIGPKVLLLDEPTRGVDVGAKKEIYRFVSDFTKAGGAVLMVSSELDEITGMSDRIIVIKKGAHVAEFPREETTQKALMMAAV	not soluble
MGSDKIHHHHHHMSSSPSTLNFGSMTDVFGFLIEIDKLKSVQRRTKIIGSERHEDSAEHSWHFAVAAMALAPYAGEGVDIQRVIQMALIHDIVEIDAGDVIVYDLSARLAIHDQEVAAAARIFGLLPEPQRQQFQDLWEEYEANETPSAQFALVLDRVMPMLMNLYNGGQSWVENGIRLEQVLDRAEFIATINPELWQYMKQHLEDAKAKGWLL	not soluble
MGSDKIHHHHHHMSTEPLASRMRPKNIDEIISQQHLVGPKGIIRRMVDTKKLTSMIFYGPPGIGKTSIAKAISGSTQYKFRQLNAVTNTKKDMQLVVEEAKMSGQVILLLDEIHRLDKAKQDFLLPHLENGKIVLIGATTSNPYHAINPAIRSRAQIFELYPLNDEDVRQALTRAIEDDENGLKTYQPKIDEDAMTYFSTQSQGDVRSALNALELAVLSADNDKDGYRHVTLQDAKDCLQKGAFVSDKDGDMHYDVMSAFQKSIRGSDVNAALHYLARLIEAGDLPTIVRRLLVISYEDIGLASPNAGQRTLAAIESAERLGLPEARIPLSQAVIELCLSPKSNSAMSAIDSALSDIRNGHVGQIPNHLKDGHYQGAKDLGRSIGYKYPHQYVNGYVSQQYLPDKLKNKIYYEPKTTSKSEQQLKEIYNNLLKQRP	not soluble
MGSDKIHHHHHHMSTKHAKAAEKFLENPVMAAWHNETLWMVRAKRDKMSKEVPEWEELRDKACALKLYSNSHLEELLLEFEKNATANGAIVHWAKDAEEYRAIVYEILSSHGVKHFVKSKSMLAEECELNPFLIEKGIDVVESDLGERILQLMNLAPSHIVLPAIHIKREQVGELFEKEMGTEKGNFDPTYLTHAARKNLRNIFLNAEAAMTGANFAVASTGDIVVCTNEGNADMGTSCPTLNIAAFGMEKIVPDMEALGVFTRLLARSATGQPITTYTSQYRNPREGGEYHIIIVDNGRSALLAHPDHIKTLNCIRCGACMNTCPVYRRSGGYSYTYFIPGPIGINLGMAHDPEKYYDNLSACSLCMSCSDVCPAKVDLAEQIYKWRQDLDKIGKANTGKKIMSGGMKVLMDHPTLFNAALWAAPVVNHLPRFMKYNDLDAWGKGRELPKFAGESFNEMWKKNKVQGKEENK	not soluble
MGSDKIHHHHHHMSTLIRSALLVKFSEIARTLSVDPERMIRHVGADRSCIVSPDLHVPEPWLANVLDASEQASSGAAVGLLMAESWRLSDFGPISLLLQHQPTLRHALGQLETYRHLLSESVLVHVEETDAVAIVRLQLITDRPTPGRQPVELSIGAMLCLMKSMLGGKWKPRSVHFTHGAPANLHVHRRLFGTNVEFGSDFDGIVLDRQDLDRPNPLGDVNLARYAREFLDQHPRGRRISTASNVRRSVHMLLPRGQGSIEQVGQQLGMSARTLQRRLGQEGQEFSSLVNEVRRGLASRYLADLRYPVSQVAMLVGFAEVSTFSRWFSSQFGMPPTRWRTGAEH	not soluble
MGSDKIHHHHHHMSTLPHLGFQVYQPCAPLLPYVRCYWQITRIAAPETRSTEFMHPEGGTGIIFNFGAPMHFDGWQHRAQCLVTGPTKQSTRLELSGRVDALGIRFWPGAGRAFLKTPLSEMLGQTLTPADLSLALLSDELAERLAVLPTAPERIALLETRLLHYLTAHGSQTQTTEPSMKYALNWIAEQKGQGEIRNLLTEIDISQRQLERLFQQNLGMSPKNYSILQRTGFARELLKSDTDSPLTDIGYQAGFYDQAHFIREFKQVIGITPGQFRSKALLRR	not soluble
MGSDKIHHHHHHMSTSAIDPVSFSLYAKDFTRFAQELGASFERYGFAVLSDYDLDQARIDAAVDSAKAFFALPVETKKQYAGVKGGARGYIPFGVETAKGADHYDLKEFWHMGRDLPPGHRFRAHMADNVWPAEIPAFKHDVSWLYNSLDGMGGKVLEAIATYLKLERDFFKPTVQDGNSVLRLLHYPPIPKDATGVRAGAHGDINTITLLLGAEEGGLEVLDRDGQWLPINPPPGCLVINIGDMLERLTNNVLPSTVHRVVNPPPERRGVPRYSTPFFLHFASDYEIKTLQNCVTAENPDRYPESITADEFLQQRLREIKLA	not soluble
MGSDKIHHHHHHMSTVESALTRRIMGIETEYGLTFVDGDSKKLRPDEIARRMFRPIVEKYSSSNIFIPNGSRLYLDVGSHPEYATAECDNLTQLINFEKAGDVIADRMAVDAEESLAKEDIAGQVYLFKNNVDSVGNSYGCHENYLVGRSMPLKALGKRLMPFLITRQLICGAGRIHHPNPLDKGESFPLGYCISQRSDHVWEGVSSATTRSRPIINTRDEPHADSHSYRRLHVIVGDANMAEPSIALKVGSTLLVLEMIEADFGLPSLELANDIASIREISRDATGSTLLSLKDGTTMTALQIQQVVFEHASKWLEQRPEPEFSGTSNTEMARVLDLWGRMLKAIESGDFSEVDTEIDWVIKKKLIDRFIQRGNLGLDDPKLAQVDLTYHDIRPGRGLFSVLQSRGMIKRWTTDEAILAAVDTAPDTTRAHLRGRILKAADTLGVPVTVDWMRHKVNRPEPQSVELGDPFSAVNSEVDQLIEYMTVHAESYRS	not soluble
MGSDKIHHHHHHMSVNETTNIKKNERSVLLPERHPNHELFICDVLEAIPKDDLASMEHPVFSLATKPDTRTLIYEHRDVKIQITPSVKGLATIFDKDLLIFCISQMIAKKNRGEPLSQNVRLHAYDLLIWTNRETSGDAYRRLIEAFERLRGTTIVTNIKADGEEITTGFGLIDSFKVVRHTATGRMSELEVRISDWMFKIIQGSQVLTLSRDYFRLRKPIERRIYEIARKHCGEQDEWRISIELLQKKTGASSHERAFKAMVRELVKCDHLPDYSVTLEDDMVIFYNRAGLSEKIPLTAFPQLNAETYNDARTVAPGYDVYYLEQEWRDMWVDTGMPLLHNPDKAFIAFCKSRAKRRPMGR	not soluble
MGSDKIHHHHHHMSVNPLFKVILHPFIKESIASLKAMTNLTGVAGDPFMDKVEDFRFKGYAVCSDVTGSLDGVIMMHHYPETAIAIGNSVCQNMFNETYAFDAINDDLRNALAEWGNTIVGRSTDLHSRHKLEYGFSSPYFVEDLTEMDKYLVGVKQVITVPIMVEGIGRYYFNLLIRDVVEQVANVDIDAQSIDVENTHTTPLPLTSTVLVVDDSAMIRKAISRFLNNLGYHNVIEADDGIGAIEAVKAGKVDFIFMDVVMTRLNGDAALAELRNMGSQVPVVMLSSVTDNILVKQCQKHGISGFIFKPINANNGAETIAKYLKIAAAVAI	not soluble
MGSDKIHHHHHHMSVQESVGGDVTGWWPSDNESLSPYPLYRERFCREGGLQPVFSGRTVLLPLRPGLLLSMREGQALTDLRGKREVGPAMHLEILFAAEGYSVVSGSTERYPFKPNTVSLQVTSSAVVAEFFIPAGAVIRSLAVRFSGLYLDHLASKGGFAALCSGGGDPLLLSRGVDLVMRPLSPALRPLASQILATEGATDGERLFLEAKILELISVVLSTPASGGGQSQTEPTKTALSRRDHKKIGQARELLIGDLDKTWKIKDLARHVGMNENKLKAGFRQIYDNSIYAYLQDWRMRAASHRLKQGEDSVTGVALSVGYSNPAHFAKVFRRYFGVSPSRYAEDGAPGPKKDNETY	not soluble
